Measured values taken from US20220218639A1.

Biological target: fibrin (Homo sapiens (Human)) (UniProt P02671)

Substance: δ-plasmin (enzyme)
- percent clot digestion (clot weight before and after 2 hours of incubation, in serum, background-corrected): 7.17%
